Reference: US6200577A, “Anti-herpesviral agents and assays therefor” (priority 1996, dated 2001)

Columns and labels:
[1] = target: T1, VP16/VP22trunc interaction (Human herpesvirus 1, UniProt P06492); experiment: Co-purification of VP16 with VP22trunc on Ni-NTA resin in presence of peptides; type: binding, HSV-1; details: for Co-elution of VP16 with VP22trunc from Ni-NTA resin after incubation with peptide: crude peptide at 2 mg/ml (about 1 mM), equal volume mixed with partially purified VP16 extract before VP22trunc; for Inhibition of VP16 co-elution with VP22trunc, peptides purified to homogeneity: peptides purified by reverse phase HPLC, data not shown
T1 construct: Plasmid pETVP16 was used to express full-length VP16 under the control of the T7 RNA polymerase promoter; made in house; host or cells: E. coli BL21(DE3)
Description: FIG. 4 Co-elution of VP16 with VP22trunc from Ni-NTA resin. Partially purified extract containing VP16 was incubated in the absence of (lane 14) or presence of […] of VP22trunc (lanes 3 to 13). In lanes 3 to 12, an equal volume of the individual peptides at 2 mg/ml was added to the extract prior to VP22trunc. Peptides added to each reaction were as follows: lane 3, peptide A; lane 4, peptide B; lane 5, peptide C; lane 6, peptide D; lane 7, peptide E; lane 8, peptide F; lane 9, peptide G; lane 10, peptide H; lane 11, peptide I; lane 12, peptide J; lane 13, no peptide. Lanes 3 to 14 show the polypeptides eluted from Ni-NTA resin. Other samples were as follows: lane 1, partially purified VP16 extract, lane 2, purified VP16; lane 15, purified VP22trunc. Samples were electrophoresed on a 12% polyacrylamide gel and the apparent molecular weights of VP16 (65 KDa) and VP22trunc (16 KDa) are shown.
Co-purification of VP16 with VP22trunc on Ni-NTA Resin. Purified VP22trunc and a partially purified extract containing VP16, both in 20 mM Tris-HCl, pH8.0, 250 mM NaCl, were mixed at 4° C. for 15 to 30 minutes on a rotator. 50 μl of equilibrated Ni-NTA resin was added to each mixture and incubation was continued at 40C for a further 15 to 30 minutes. Resin was pelleted at 800 g for 1 minute and the supernatant (non-bound fraction) was removed. Resin was washed sequentially with 0.5 ml of 20 mM Tris-HCl, pH 8.0, 250 mM NaCl, 5 mM imidazole (twice) and 0.5 ml of 20 mM Tris-HCl, pH 8.0, 250 mM NaCl, 60 mM imidazole (four times). Bound protein was eluted by addition of 50 μl of boiling mix (160 mM Tris-HCl, pH 6.7, 2% SDS, 700 mM β-mercaptoethanol, 10% glycerol, 0.002% bromophenol blue) followed by heating to 100° C. for 5 minutes. For peptide studies, peptides were dissolved in 20 mM Tris-HCl, pH8.0, 250 mM NaCl at a concentration of 2 mg/ml. Incubation of peptides with partially purified VP16 extracts was performed at ambient temperature for 2 hours prior to the addition of VP22trunc. Samples were electrophoresed on denaturing polyacrylamide gels.
Results presented in Section 2(i) had shown that VP16 co-elutes from Ni-NTA resin in the presence of VP22trunc and it was concluded that this indicated interaction between these polypeptides. The ability of synthetic peptides to inhibit this interaction was analysed by mixing them individually with the partially purified VP16 extract prior to addition of VP22trunc. From the intensity of the 65 KDa species in the crude extract (FIG. 4, lane 2), it was estimated that the concentration of VP16 was approximately […]. To ensure that experiments were performed in an excess of peptide, peptides were prepared at a concentration of 2 mg/ml (about 1 mM) and equal volumes of peptide and extract were mixed. This gave a relative molar ratio of VP16 to peptide of 1:300. However, it should be noted that certain peptides were not completely soluble (Table 1) and in those cases, the ratio would be reduced.

[2] = target: T1, VP16/VP22trunc interaction; experiment: Far Western analysis of peptides blocking VP16 binding to immobilised VP22trunc; set-up: species or system HSV-1; details: for Blocking of VP16 binding to immobilised VP22trunc (Far Western), crude peptides: strips pre-incubated with 1 mg of crude peptide, FIG. 7A; for Blocking of VP16 binding to immobilised VP22trunc (Far Western), repeat with purified peptides D and E: strips pre-incubated with 1 mg peptide, FIG. 7B
Description: FIG. 7 Far Western analysis of the ability of peptides to block the interaction between VP16 and immobilised VP22trunc. Purified VP22trunc was added to partially purified extract of VP16 and the sample run on a 12% polyacrylamide gel. Proteins were then transferred to nitrocellulose membrane and the blot was cut into strips, with each strip containing approximately 1 g of VP22trunc. In (A), strips were pre-incubated with 1 mg of each of the following peptides: lane 2, no peptide, lane 3, peptide C; lane 4, peptide D; lane 5, peptide E; lane 6, peptide F; lane 7, peptides D and E; lane 8, peptides C and F. In (B) strips were pre-incubated with 1 mg of each of the following peptides: lane 2, no peptide, lane 3, peptide C; lane 4, purified peptide D; lane 5, purified peptide E; lane 6, peptide F. 24 g of pure VP16 was then added to strips 2 to 8 in (A) and strips 2 to 6 in (B), followed by incubation with LP1 antibody (1:1000 dilution). As a control, portions of the blot were incubated with LP1 or the 9220 antibody at a dilution of 1:1000 (lane 1 for LP1 in A and B; lane 9 in A and lane 7 in B for 9220). The apparent molecular weights of VP16 (65 KDa) and the dimer (32 KDa) and monomer (16 KDa) forms of VP22trunc are shown.
Following electrophoresis, proteins were electrotransferred to either Hybond or ProBlott (Applied Biosystems) membrane and the membrane was incubated in renaturation buffer (50 mM Tris-HCl, pH 8.0, 150 mM NaCl, 10% glycerol, 1 mM DTT) at 4° C. for 5-6 hours.
For membranes probed with either VP16 or VP22trunc, blocking was performed overnight as described for Western blot analysis. Probing with epitope-tagged VP22 or VP16 was performed in 20 mM Tris-HCl, pH 8.0, 250 mM NaCl for 1.5 hours at ambient temperature. Excess probe was removed by washing 4 times (10 minutes per wash) in 20 mM Tris-HCl, pH8.0, 250 mM NaCl, followed by incubation with the appropriate antibody at a dilution of 1:1000 in TTBS/1% gelatin for 1.5-2 hours. Bound antibody was detected as described for Western blot analysis.
Based on the studies with soluble VP16 and VP22trunc presented above, only a restricted number of peptides were examined by Far Western analysis to identify those that may prevent binding of VP16. Thus, VP22trunc was added to a crude extract of bacterially expressed VP16 and the proteins were electrophoresed on a polyacrylamide gel followed by transfer to a membrane. […] Before the addition of VP16 the blot strips in lanes 3 to 8 were incubated with crude preparations of peptides C, D, E, or E' as well as mixtures of either 0 and E or C and F. When the blot strips were incubated with peptides C and F either singly or in combination, VP16 bindincg to VP22trunc was not prevented (FIG. 7A, lanes 3, 6 and 8).

T1 sequence (P06492 whole entry): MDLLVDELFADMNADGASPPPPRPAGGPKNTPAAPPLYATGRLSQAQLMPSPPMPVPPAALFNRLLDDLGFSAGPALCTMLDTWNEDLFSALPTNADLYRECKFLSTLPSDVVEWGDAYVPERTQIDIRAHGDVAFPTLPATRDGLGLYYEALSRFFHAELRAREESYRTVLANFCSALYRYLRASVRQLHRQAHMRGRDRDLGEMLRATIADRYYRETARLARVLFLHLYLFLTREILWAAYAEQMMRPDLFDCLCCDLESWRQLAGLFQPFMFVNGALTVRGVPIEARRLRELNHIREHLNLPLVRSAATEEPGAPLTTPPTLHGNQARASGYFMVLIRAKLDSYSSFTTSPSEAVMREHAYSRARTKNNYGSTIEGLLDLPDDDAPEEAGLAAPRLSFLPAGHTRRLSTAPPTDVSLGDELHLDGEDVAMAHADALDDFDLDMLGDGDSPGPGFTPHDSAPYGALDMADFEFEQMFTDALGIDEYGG

| Sequence | Co-elution of VP16 with VP22trunc from Ni-NTA resin after incubation with peptide [1] | Inhibition of VP16 co-elution with VP22trunc, peptides purified to homogeneity [1] | Blocking of VP16 binding to immobilised VP22trunc (Far Western), crude peptides [2] | Blocking of VP16 binding to immobilised VP22trunc (Far Western), repeat with purified peptides D and E [2] |
| --- | --- | --- | --- | --- |
| CAAVGRLAAMHARMAAVQLW [Peptide E] | failed to co-elute | inhibitory capabilities were retained | loss of recognition of VP22trunc | able to block binding of VP16 to VP22trunc |
| FSTAPPNPDAPWTPRVAGFN [Peptide C] | – | – | not prevented | had no effect |
| TPRVAGFNKRVFCAAVGRLA [Peptide D] | reduced amounts | inhibitory capabilities were retained | loss of recognition of VP22trunc | able to block binding of VP16 to VP22trunc |
